Like-named read-outs stand apart in the source and are kept apart here.
Columns and labels:
Experiment in all cases: single-molecule fluorescence in zero-mode waveguides
[1] = molecular target: Escherichia coli 70S ribosome (Cy3B-30S and BHQ-50S subunits) on biotinylated 6(FK) mRNA (E. coli) (UniProt P0AG67)
[2] = molecular target: Escherichia coli 70S ribosome (Cy3B-30S and BHQ-50S subunits) on biotinylated 6(FK) mRNA (E. coli) (UniProt P0AG67); remark: listed apart in the source
[3] = molecular target: Escherichia coli 70S ribosome (Cy3B-30S and BHQ-50S subunits) on biotinylated 6(FK) mRNA (E. coli) (UniProt P0AG67); remark: listed apart in the source

arrival time against that of EF-G-GDPNP [1]: 150 % longer
bound-state lifetime [1]: 332 ms
arrival time against that of EF-G-GDPNP [2]: 150 % longer
bound-state lifetime [2]: 191 ms
dwell time [2]: 1.64 s
dwell time (events with counter-rotation) [2]: 122 ms
dwell time (sampling of the non-rotated state) [2]: 64.2 ms
dwell time (sampling of the rotated state, no conformational change) [2]: 75.8 ms
dwell time after the counter-rotation [2]: 10 ms
dwell time with fusidic acid [2]: 8.4 s
koff [2]: 13.2 s⁻¹
mean dwell time with spectinomycin (sampling of the rotated state) [2]: 351 ms
mean dwell time with spectinomycin (successful translocation events) [2]: 326 ms
mean lifetime of the complex [2]: 1.62 s
dwell time [3]: 192 ms
Substance: Cy5-labeled single-cysteine elongation factor G (EF-G S73C on a cysteine-free background) (from UniProt P0A6M8 1-704) (enzyme)
